Test results as given in patent US20200262889A1 (B G NEGEV TECHNOLOGIES AND APPLICATIONS LTD AT BEN GURION …, published 2020).

Target: T1, mouse OAT-3 (oat3, slc22a8) (mouse, UniProt O88909 1-537)
T1 construct: whole, on cells; Expressed in HEK293T cells; coIP from lysates; not shown: myc-DDK tag of the pCMV6-Entry myc-DDK vector
T1 sequence (looked up): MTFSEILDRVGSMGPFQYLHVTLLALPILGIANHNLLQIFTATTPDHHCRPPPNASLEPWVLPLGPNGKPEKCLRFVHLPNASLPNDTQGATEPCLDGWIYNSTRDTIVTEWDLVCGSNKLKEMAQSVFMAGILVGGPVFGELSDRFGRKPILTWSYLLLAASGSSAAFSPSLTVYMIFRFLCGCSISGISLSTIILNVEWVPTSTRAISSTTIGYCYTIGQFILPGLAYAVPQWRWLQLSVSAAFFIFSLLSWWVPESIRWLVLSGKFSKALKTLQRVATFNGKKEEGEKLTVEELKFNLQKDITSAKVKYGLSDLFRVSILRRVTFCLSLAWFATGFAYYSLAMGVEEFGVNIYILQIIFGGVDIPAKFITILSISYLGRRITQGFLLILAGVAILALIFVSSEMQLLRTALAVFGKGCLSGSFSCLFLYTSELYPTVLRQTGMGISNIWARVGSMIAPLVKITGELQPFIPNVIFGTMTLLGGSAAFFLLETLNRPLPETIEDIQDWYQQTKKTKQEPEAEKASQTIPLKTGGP
Test: coIP from HEK293T cells co-transfected with OAT-3 and IRBIT
Source text: To determine whether IRBIT regulates succinate efflux via interaction with OATs, the interaction of OAT-1 and/or OAT-3 with IRBIT was monitored by coIP. […] Succinate uptake was elevated by expression of OAT-1 alone, that was abolished by the OAT inhibitor probenecid (FIG. 6B-C). Neither IRBIT, SUCNR1 stimulation, nor inhibition of PLC by U73122 affected the OAT-mediated succinate uptake. These findings indicate that OAT-1 activity is IRBIT-independent.

- binding result: no binding
B1: IRBIT (IP3 receptor-binding protein released with IP3; S-adenosylhomocysteine hydrolase-like protein) (other)
chain: SMPDAMPLPGVGEELKQAKEIEDAEKYSFMATVTKAPKKQIQFADDMQEFTKFPTKTGRRSLSRSISQSSTDSYSSAASYTDSSDDEVSPREKQQTNSKGSSNFCVKNIKQAEFGRREIEIAEQDMSALISLRKRAQGEKPLAGAKIVGCTHITAQTAVLIETLCALGAQCRWSACNIYSTQNEVAAALAEAGVAVFAWKGESEDDFWWCIDRCVNMDGWQANMILDDGGDLTHWVYKKYPNVFKKIRGIVEESVTGVHRLYQLSKAGKLCVPAMNVNDSVTKQKFDNLYCCRESILDGLKRTTDVMFGGKQVVVCGYGEVGKGCCAALKALGAIVYITEIDPICALQACMDGFRVVKLNEVIRQVDVVITCTGNKNVVTREHLDRMKNSCIVCNMGHSNTEIDVTSLRTPELTWERVRSQVDHVIWPDGKRVVLLAEGRLLNLSCSTVPTFVLSITATTQALALIELYNAPEGRYKQDVYLLPKKMDEYVASLHLPSFDAHLTELTDDQAKYLGLNKNGPFKPNYYRY
notes: The methods say only 'IRBIT in pcDNA3.1(+)'
